In the supplement of paper PMC12042874:
± gives the uncertainty stated by the source.

Experiment: amyloid nucleation score (Sup35N fusion, yeast selection) (log enrichment); library NNK3; higher = more nucleation; inactive = no reads after selection
Procedure, shortened: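 Plasmid inserts were Illumina-sequenced at input and output from psi-negative yeast expressing Sup35N fused to peptides of 20 random codons. The yeast were induced with 100 μM copper sulfate for 24 hours and grown 7 days at 30°C on medium lacking adenine and uracil, and sequences with under 100 input reads were excluded. Nucleation score is the DiMSum log enrichment of output over input reads, centred on the mode score of non-aggregating sequences.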

Substance | amyloid nucleation score
KCCEQRAIIPFVGRTRSHAT | inactive
KCISSRARK | inactive
KCMGVSWLSNIVRSIRVIIS | inactive
KCMQVVSSRSWVVHWGWKGG | inactive
KCNRFRG | inactive
KCSNLVAFVI | inactive
KCTANL | inactive
KDKQVV | inactive
KDLWCSDSRS | inactive
KDNTYVIFFYYLFVFVRTFL | inactive
KDVPPFFSSSFNWAGLRKDK | 0.436 ± 0.41
KERVNRSLTYTVFSS | inactive
KEWVMRLSVGYIDSFHRFAW | inactive
KFGSLWRSNESDSSNSALRY | inactive
KFLLTWK | inactive
KFSCINVDPMHYSNSWTT | inactive
KFSTTFVTCSIVLVRILLDL | inactive
KFVFSFGSLYSVLTLERVEG | 0.388 ± 0.2
KGCNYVNNSTAMLSRRSFYS | inactive
KGGSVGHQQLYMCWQYNPVF | inactive
KGHCQAVGLKEEKPR | inactive
KGTSR | inactive
KGVDQGISECFLAVWFGRMN | inactive
KGYCFAYRQNSVELIP | inactive

Substance | amyloid nucleation score
KHVGIVMH | inactive
KIILEIAMRTSLCRPTSSYL | 1.03 ± 0.099
KIIYKGLYEHLIVMLNIINL | inactive
KIMNSKNVLRHFSLGQWLHG | inactive
KIQTNCNFTC | 2.5 ± 0.067
KITLDYRLGHVDRQTTISVK | inactive
KKDQTMVES | inactive
KKMLLWHI | inactive
KKVISSCFYRVCVSSPAGSV | inactive
KKVLN | inactive
KLCYNNCVNLLII | 0.716 ± 0.13
KLFISPLEMLISRISWTILH | 0.152 ± 0.77
KLNAVYTRSAGWLSHQEM | inactive
KLNLG | inactive
KLNSGEVFWQDTL | inactive
KLQEDKLGPSKNKPSVHLCF | inactive
KLSCMSTIVCRYTFLQAKQT | inactive
KLSSFSSLQIYTWYMILG | inactive
KLSSKY | inactive
KLTHY | inactive
KLTNLI | inactive
KLTVMVMQLASLRLAK | -0.158 ± 0.35
KLVYFRVFKSRFRSRVGGMV | inactive
KLYWNHAQYPNTTVSTVKFS | -0.706 ± 1.4

Substance | amyloid nucleation score
KMCDECIVLS | inactive
KMDQYCWGFFVSWYMRKKVF | inactive
KMSSHFV | inactive
KNEAPRTGQTRPRSTGMYRI | inactive
KNEVIYHWLRRRVNSRRTFR | inactive
KNKPEKRR | inactive
KNREVANYNDMYSDPILG | inactive
KNTGMGDTVSFRLVSAFEHI | inactive
KNYNNYMVSSNNLLVDIWLV | 1.47 ± 0.12
KPKELSAHLNATM | inactive
KPQVPSN | inactive
KQKWIPYSLCFFTPVR | inactive
KQLLGGPTVSFNVVYSVALK | 1.98 ± 0.088
KRANSE | 1.11 ± 0.1
KRCIYKSNGI | inactive
KRFTLFSMIYGRV | inactive
KRGNQGGAMEDFLCNADIRV | inactive
KRLAKWGTMYLV | inactive
KRLSCNFRSRSKSSGWPTLV | inactive
KRYSIMFSKASQ | 0.986 ± 0.15
KRYYYCHGSSL | inactive
KSFELYSKNVMYDSVLGVCL | inactive
KSFQGSITILVFSWLINNPR | inactive
KSFSR | inactive

Substance | amyloid nucleation score
KSKNPIIVFTYRM | 1.2 ± 0.14
KSNFGLVSSPMVFSYCSYTN | 0.364 ± 0.35
KSTTACASRTYMCMHTGRNC | inactive
KSVQKMAWTVRCELYLHTG | inactive
KSYLFWSLI | inactive
KTKQIYDGPLGHSYADKCNV | inactive
KTLWHEVRGDDSNVSSCWFS | inactive
KTQDKITGFLTVLWLRKLVP | inactive
KTSINGKADFG | inactive
KVCNSF | inactive
KVCSVVLLGLFSYMYRGYVM | inactive
KVGFHHDTVLAGSNQRVLFF | -0.354 ± 0.88
KVGIF | inactive
KVKRFY | 1.17 ± 0.19
KVLSYRETVPRLICLIHSRP | inactive
KVNAFTCTKSFGLCVSESFT | inactive
KVSYSQTPISGRTDTPVPDR | 0.294 ± 0.2
KWLYTDYRVISSHILKHLSA | inactive
KWVFYYDRRVDSLLARMFLC | inactive
KWYRWCMYADDIESHLFGAL | inactive
KYCGLSRPIAFSPVVKKHLM | inactive
KYCGVTNLA | inactive
KYFTLDMNRKSISYL | inactive
KYIQIDKVFH | inactive

Substance | amyloid nucleation score
KYRVGMSSWFNLAHYGNLCG | 0.228 ± 0.25
KYYWFMF | 1.78 ± 0.096
LAAIDERPS | inactive
LAAQIMNSLCRLELSQALSR | inactive
LACLILS | inactive
LACRFILNAEVEICLAWKLG | inactive
LADLNTTNIVIGQCCFFYRL | 2.55 ± 0.076
LAFYNQHWNFSMRSGMQGFK | 1.05 ± 0.23
LAGRHVVMWLQLMAHDIENM | inactive
LAMSYYLYPGSCDLKRS | inactive
LAPGRLCLMGIKRTTSWWSS | inactive
LAPHLSTIMCIEHNS | inactive
LARRNTLVEGHDD | inactive
LARWNVIWFFNGNCIFEESV | 1.31 ± 0.074
LASNFVGASIPPRRACGCRA | inactive
LATHSICVKGNSRVSELISA | inactive
LAVVNYQSFTNVEWVGNRIK | inactive
LAWCVLSKPRDRYSGVTSTL | inactive
LCGLSDSYCRA | inactive
LCHVVSDMVLSIQHYHACLS | inactive
LCHYYLRSKLMAFDMLAFPS | inactive
LCNWRAVDCDD | -0.151 ± 0.59
LCPHPPFLCLVQQRFTTGSG | -0.123 ± 0.33
LCRGYDRLKRPHSVVSGSIC | inactive

Substance | amyloid nucleation score
LCRNWVR | inactive
LCSFPKH | inactive
LCSSLIM | inactive
LCSVVTSRAMSGSF | inactive
LCTESFIISR | inactive
LCVSCIDSFLGEMVFGLEVI | inactive
LDARN | -0.213 ± 1.5
LDCLLFKKCFVVRGLNDYSE | inactive
LDFCFLGHRWRSFSGSYRKS | inactive
LDFWRESVGAKE | inactive
LDFYRTFNDSIFKMGPLCLS | inactive
LDIFKISDTWMFDGQLTHLL | inactive
LDRSVIIVSLILS | 1.87 ± 0.072
LDVPWRTFLNGFHSFLT | inactive
LDVQATIAFCVVVYASLYKR | inactive
LDVVRRMLKTH | inactive
LDVYTVTGRDW | inactive
LDYAFCILNNNCREC | 3.05 ± 0.057
LEHCLCGLKYPDE | inactive
LEMTSCTNLLHKRELVSWHR | inactive
LEPDNYTLGGTKSTTTFAHR | inactive
LERYRFKRNMSVIELHNKVM | inactive
LESINTLLNYVYYFNLVN | inactive
LEVHIFKDPEY | inactive

Substance | amyloid nucleation score
LEWRMNVLMLFRNVMVHIAS | inactive
LEYAYSELNSSVSTLSSFE | inactive
LEYVCMRH | inactive
LFADWQG | inactive
LFCFSVN | inactive
LFDLWNRVF | inactive
LFGEGKFKYWMSVKKFGSGI | inactive
LFHDLGFAD | inactive
LFHSYLIHRLFPSNHSNFRM | inactive
LFIECIRSGDDGCILWETWH | inactive
LFKDSIVLIGILYCMFNLHD | inactive
LFKKVDTWSYLHGDTMLRGI | inactive
LFKLSMQLCNT | 1.71 ± 0.076
LFLMIFNARNCVRYGIEGPS | inactive
LFLSDKLPTFSRLNKCMLGV | -1.31 ± 1.9
LFMKRLFLSWFSMVVICGAP | 0.362 ± 0.71
LFNSRMCMPRFASASNLACL | inactive
LFQKKFILQVYNCLFSYYFN | 1.18 ± 0.096
LFTWKCDLGSRRAKGSGLGS | 1.42 ± 0.13
